# Data published in patent US20050215503, “HIF oligonucleotide decoy molecules” (published 2005).
# B1: decoy 853/854 (dsDNA)
# DNA 1: TTGCTTACGTGCGCCCGG
# DNA 2: CCGGGCGCACGTAAGCAA
# B2: decoy 843/844 (dsDNA)
# DNA 1: GTGCATACGTGGGCTCCA
# DNA 2: TGGAGCCCACGTATGCAC
# B3: decoy 809/810 (dsDNA)
# DNA 1: AGGGCCGGACGTGGGGCCCC
# DNA 2: GGGGCCCCACGTCCGGCCCT
# B4: decoy 823/824 (dsDNA)
# DNA 1: TGCATACGTGGGCTCCAACAG
# DNA 2: CTGTTGGAGCCCACGTATGCA
# B5: decoy 983 (dsDNA)
# DNA 1: CCAGCGTACGTGTCTCAGG
# DNA 2: CCTGAGACACGTACGCTGG
# B6: decoy 981 (dsDNA)
# DNA 1: CCAGCGTACGTGGCTCAGG
# DNA 2: CCTGAGCCACGTACGCTGG
# B7: decoy 997 (dsDNA)
# DNA 1: CCGGGGCACGTGCCCCAGG
# DNA 2: CCTGGGGCACGTGCCCCGG
# B8: decoy 891/892 (dsDNA)
# DNA 1: GGCTGCTGCATACGTGCAGGTC
# DNA 2: GACCTGCACGTATGCAGCAGCC
# B9: decoy 985 (dsDNA)
# DNA 1: CCAGCGTACGTGACTCAGG
# DNA 2: CCTGAGTCACGTACGCTGG
# B10: decoy 851/852 (dsDNA)
# DNA 1: CGGAGTACGTGACGGAGC
# DNA 2: GCTCCGTCACGTACTCCG
# B11: decoy 849/850 (dsDNA)
# DNA 1: GCCTACACGTGGGTTCCC
# DNA 2: GGGAACCCACGTGTAGGC
# B12: decoy 879/880 (dsDNA)
# DNA 1: GGCTGCTGCAGACGTGCAGGTC
# DNA 2: GACCTGCACGTCTGCAGCAGCC
# B13: decoy 933 (dsDNA)
# DNA 1: CCAGCGTATGTGCCTCAGG
# DNA 2: CCTGAGGCACATACGCTGG
# B14: decoy 903 (dsDNA)
# DNA 1: CACCTGCATACGTGGGCTCCA
# DNA 2: TGGAGCCCACGTATGCAGGTG
# B15: decoy 845/846 (dsDNA)
# DNA 1: GAGCGTACGTGCCTCAGG
# DNA 2: CCTGAGGCACGTACGCTC
# B16: decoy 901 (dsDNA)
# DNA 1: CACGTGCATACGTGGGCTCCA
# DNA 2: TGGAGCCCACGTATGCACGTG
# B17: decoy 817/818 (dsDNA)
# DNA 1: CTGCCGACGTGCGCTCCGGAG
# DNA 2: CTCCGGAGCGCACGTCGGCAG
# B18: decoy 937 (dsDNA)
# DNA 1: CCAGCGTAGGTGCCTCAGG
# DNA 2: CCTGAGGCACCTACGCTGG
# B19: decoy 861/862 (dsDNA)
# DNA 1: CTAATACGTGCCGCTG
# DNA 2: CAGCGGCACGTATTAG
# B20: decoy 887/888 (dsDNA)
# DNA 1: GGCTGCACCGTACGTGCTGATC
# DNA 2: GATCAGCACGTACGGTGCAGCC
# B21: decoy 999 (dsDNA)
# DNA 1: CCATGGCACGTGCCTCAGG
# DNA 2: CCTGAGGCACGTGCCATGG
# B22: decoy 811/812 (dsDNA)
# DNA 1: ACGCTGAGTGCGTGCGGGAC
# DNA 2: GTCCCGCACGCACTCAGCGT
# B23: decoy 935 (dsDNA)
# DNA 1: CCAGCGTAAGTGCCTCAGG
# DNA 2: CCTGAGGCACTTACGCTGG
# Target: HIF-1 (HIF-1alpha/HIF-1beta (ARNT) heterodimer) (Homo sapiens?, UniProt Q16665;P27540 Q16665:1-826,P27540:2-789)
# Sequence (Q16665 whole entry, chain 1 of 2): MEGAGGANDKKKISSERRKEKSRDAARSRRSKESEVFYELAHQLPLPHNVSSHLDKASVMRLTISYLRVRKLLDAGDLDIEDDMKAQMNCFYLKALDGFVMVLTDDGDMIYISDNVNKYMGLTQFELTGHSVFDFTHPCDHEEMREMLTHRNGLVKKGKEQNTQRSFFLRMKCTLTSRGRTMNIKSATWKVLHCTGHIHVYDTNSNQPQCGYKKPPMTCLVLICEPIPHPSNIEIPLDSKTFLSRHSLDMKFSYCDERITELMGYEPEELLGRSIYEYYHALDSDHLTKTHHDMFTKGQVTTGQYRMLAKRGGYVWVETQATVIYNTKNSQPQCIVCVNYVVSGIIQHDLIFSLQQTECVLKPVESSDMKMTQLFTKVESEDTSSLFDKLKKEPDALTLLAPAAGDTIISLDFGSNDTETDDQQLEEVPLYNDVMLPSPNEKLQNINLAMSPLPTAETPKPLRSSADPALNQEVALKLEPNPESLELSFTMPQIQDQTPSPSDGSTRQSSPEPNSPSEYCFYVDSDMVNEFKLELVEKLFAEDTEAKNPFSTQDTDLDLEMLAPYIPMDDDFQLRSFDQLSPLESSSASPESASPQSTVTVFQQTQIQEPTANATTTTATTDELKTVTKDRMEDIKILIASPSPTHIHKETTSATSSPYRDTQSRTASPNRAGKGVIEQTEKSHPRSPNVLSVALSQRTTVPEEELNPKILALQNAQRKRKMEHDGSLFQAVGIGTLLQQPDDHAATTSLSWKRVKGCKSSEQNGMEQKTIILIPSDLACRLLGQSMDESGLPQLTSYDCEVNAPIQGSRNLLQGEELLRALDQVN
# Sequence (P27540 2-789, chain 2 of 2): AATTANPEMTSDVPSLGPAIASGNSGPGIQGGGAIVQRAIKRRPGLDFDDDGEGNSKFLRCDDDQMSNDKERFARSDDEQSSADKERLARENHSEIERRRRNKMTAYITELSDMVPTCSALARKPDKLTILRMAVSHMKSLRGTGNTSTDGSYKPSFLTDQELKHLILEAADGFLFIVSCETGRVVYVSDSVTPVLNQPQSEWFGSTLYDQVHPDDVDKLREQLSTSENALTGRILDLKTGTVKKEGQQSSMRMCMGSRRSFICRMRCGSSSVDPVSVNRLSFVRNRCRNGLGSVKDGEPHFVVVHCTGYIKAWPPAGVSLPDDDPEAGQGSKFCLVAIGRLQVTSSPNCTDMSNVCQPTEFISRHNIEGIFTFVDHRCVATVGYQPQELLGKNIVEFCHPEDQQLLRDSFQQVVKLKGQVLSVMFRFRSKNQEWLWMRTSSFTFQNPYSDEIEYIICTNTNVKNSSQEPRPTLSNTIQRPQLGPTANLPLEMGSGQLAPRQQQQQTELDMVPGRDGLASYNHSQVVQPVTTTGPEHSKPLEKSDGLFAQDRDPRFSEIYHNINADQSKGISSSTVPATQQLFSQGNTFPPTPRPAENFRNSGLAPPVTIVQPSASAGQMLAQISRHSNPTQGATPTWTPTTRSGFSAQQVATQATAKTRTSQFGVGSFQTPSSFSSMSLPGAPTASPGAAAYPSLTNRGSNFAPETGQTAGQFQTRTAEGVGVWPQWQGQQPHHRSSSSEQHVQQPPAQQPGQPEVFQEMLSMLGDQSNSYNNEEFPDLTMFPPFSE
# Test: competition; TransAM
# Settings: protein: extract; tags: none (endogenous, nuclear extract)
# Procedure: To assess the relative affinities of oligonucleotides for a HIF-1α containing complex, the HIF-1 TransAM assay (Active Motif, Catalog # 47096) was utilized. The assay was performed according to manufacturer's instructions. Briefly, a double-stranded oligonucletide containing the hypoxia response element (HRE) was immobilized on a 96-well plate. A nuclear extract containing HIF-1α complexes was incubated and allowed to bind to the immobilized oligonucleotide. The unbound material was washed away and the bound HIF-1α detected using an antibody that specificially recognizes HIF-1α. The anti-HIF-1α antibody was detected by a secondary antibody labeled with horseradish peroxidase (HRP), and the amount of HRP in each well was measured using a calorimetric substrate reaction and read using a microplate spectrophotometer.
# The ability of candidate decoy molecules to compete for binding of HIF-1α to the HRE element-immobilized on the plate were measured and compared to reveal relative binding affinities. Candidate decoys were added in increasing molar ratios (relative to the amount of oligo immobilized on the plate) to compete for binding to the HIF-1α containing complexes. The amounts of decoys added to the assay included 0.625, 1.25, 2.5, 5, 10 and 20 fold molar excess. A well containing a competing decoy able to bind HIF-1α with high affinity would give a lower absorbance reading as compared to a decoy with low affinity for HIF-1α. All potential decoys were then compared and ranked in order to assess their relative binding affinities.
# The screen was conducted using different decoy concentrations. For each UV absorbance reading, normalization was done by calculating the ratio of absorbance readings of sample vs. wild type control. The bigger ratio represents less competition of binding with HIF-1α when compared with wild-type control. The smaller (smaller than 1.0 or close to 1.0) ratios represent better binding or better competition.
row,Binder,binding signal [ratio]
1,B1,1.73
2,B2,1.7
3,B3,4.57
4,B4,4.4
5,B5,1.3
6,B6,1.7
7,B7,1.28
8,B8,1.21
9,B9,0.91
10,B10,1.41
11,B11,2.66
12,B12,1.4
13,B13,3.47
14,B14,1.94
15,B15,1.59
16,B16,1.6
17,B17,4.81
18,B18,2.49
19,B19,2.18
20,B20,1.89
21,B21,1.3
22,B22,3.9
23,B23,2.43
